# Data published in PMC4629423.
# How the values were obtained:
# Experiment in all cases: two-hybrid
# [1] = target: SARS-CoV accessory protein 8a (yeast two-hybrid fusions) (SARS-CoV Tor2 isolate)
# [2] = target: SARS-CoV accessory protein 9b (yeast two-hybrid fusions) (SARS-CoV Tor2 isolate)
# [3] = target: SARS-CoV accessory protein ORF14 (yeast two-hybrid fusions) (SARS-CoV Tor2 isolate)
Substance,α-Galactosidase [1],β-Galactosidase [1],α-Galactosidase [2],β-Galactosidase [2],α-Galactosidase [3],β-Galactosidase [3]
SARS-CoV accessory protein 9b (yeast two-hybrid fusions) (natural protein),1.17,6.91,2.52,8.8,–,–
SARS-CoV accessory protein ORF14 (yeast two-hybrid fusions) (natural protein),–,–,–,–,1.84,6.03
